Results as given in PMC8083607 (National Science Review, 2021).
Where a chain is given by its changes, count along the chain named.

B1: FC11 (antibody, V domains shown)
VH: EVQLLESGGGVVQPGRSLRLSCAASGFTFSYYGMHWVRQAPGTGLEWVAVISYDGSNEYYADSVKGRFTISRDNSKNTLYLQMNSLRAEDTAVYYCAKAMFLGDSSGLTGLDMDVWGQGTTVTVSS
VL: DIELTQSPGTLSLSPGERATLSCRASQSVSSYLAWYQQKPGQAPRLLIYDASNRATGIPARFSGSGSGTDFTLTISSLEPEDFALYYCQQRGNWPPTFGGGTKLEIK
B2: FC06 (antibody, V domains shown)
VH: EVQLLESGGGVVQPGRSLRLSCAASGFTFSSYAMHWVRQAPGEGLEWVAVISYDGSNKYYADSVKGRFTISRDNSKNTLYLQMNSLRAGDTAVYYCARLNYYGSGFYYRLGDDYWGQGTLVTVSS
VL: DIELTQSPSSLSASEGDRVTITCRASQGIRNDLGWYQQKPGKAPKRLIYGAPSLQSGVPSRFSGSGSGTEFTLTISTLQPEDSATYYCLQHNKYPWTFGQGTKVEIK
B3: FC120 (antibody, V domains shown)
VH: EVQLLESGAEVKKPGASVKVSCKASGYTFTSYYMHWVRQAPGQGLEWMGIINPSGGSTSYAQKFQGRVTMTRDTSTSTVYMELSSLRSEDTAVYYCARGGGHALDIWGQGTMVTVSS
VL: QSVLTQPPSVSGAPGQKVTISCSGSSSNIGNNYVSWYQQLPGTAPKLLIYDNNKRPSGIPDRFSGSKSGTSATLGITGLQTGDEADYYCGTWDSSLSAWVFGGGTKLTVL
B4: FC05 (antibody, V domains shown)
VH: VQLLEQSGAEVKKPGASVRVSCKVSGYTLPEVAMHWVRQAPGKGLEWMGGFDPEDGETMYAQKFQGRVTMTEDTSTDTAYMELSSLRSEDTAVYYCATTTPFSSSYWFDPWGQGTLVTVSS
VL: B3 VL with P7A, W99V
notes: also called FC05 mAb
B5: FC07 (antibody, V domains shown)
VH: EVQLLESGGGLVQPGGSLRLSCAASGFTFGSYAMSWVRQAPGKGLEWVSSISGSGGSTYYADSAKGRFTISRDNSKNTLYLQMNSLRAEDTAVYYCAKSPNYDILTGYYNWAGYYFDYWGQGTLVTVSS
VL: DIELTQSPGTLSLSPGDRATLSCRASRGVSSNSLAWYRQRPGESPRLVISGASTRATGIPERFSGSGSGTDFSLSISRLQPEDFAVYYCQQYGSFPFTFGPGTTVDV
B6: FC124 (antibody, V domains shown)
VH: EVQLLESGGGVVQPGRSLRLSCAASGFTFSSYAMHWVRQAPGKGLEWVALISYDGINKYYADSVNGRFTISRDNSKYTLYLQMNSLRAEDTAVYYCARAHRGSYYYGMDVWGQGTMVTVSS
VL: DIELTQSPGTLSLSPGERATLYCRASQSVSSSYLAWYQQKPGQAPRLLIYGAFGRAAGIPDRFRGSGSGTQFTLTISRLEPEDSAVYFCQQYGQSPLYSFGQGTKLEIK
B7: FC122 (antibody, V domains shown)
VH: B6 VH
VL: DIELTQSPSSLSASVGDSVTITCRGSQIISRYLNWYQQKPGKAPKLLIYAASTLQSGVPSRFSGSGSGTEFTLSISSLEPEDFATYYCQQSYAIPYTFGQGTRLEI
B8: FC118 (antibody, V domains shown)
VH: B6 VH with L50V, I56S, N65K, Y77N, H100R, R101G, Y105L, T115A
VL: DIELTQSPSSLAASVGDTVTITCRASQTIGKYLTWYQKKPGRAPDLLIYAASRLQSGVPSRFSGRASGTEFTLTISSLQPEDFATYFCQHTYRTLSFGPGTKVDLK

Tests used:
Assay in all cases: ELISA
Conditions in all cases: both partners purified
SARS-CoV RBD = SARS-CoV RBD (Severe acute respiratory syndrome …, UniProt P59594)
[1] = target: T1, SARS-CoV-2 NTD (recombinant, limits not stated) (SARS-CoV-2 Wuhan-Hu-1 (MN908947.3), UniProt P0DTC2)
T1 construct: also called N-terminal domain

[2] = target: SARS-CoV-2 S2 (recombinant) (SARS-CoV-2 Wuhan-Hu-1 (MN908947.3 used …, UniProt P0DTC2))
SARS-CoV S2 = SARS-CoV S2 (SARS-CoV, strain not named (reference …, UniProt P59594))
MERS-CoV S2 = MERS-CoV S2 (MERS-CoV, strain not named (entry: …, UniProt K9N5Q8))
MERS-CoV S2 (MERS-CoV, strain not named, sequence (K9N5Q8 whole entry, looked up): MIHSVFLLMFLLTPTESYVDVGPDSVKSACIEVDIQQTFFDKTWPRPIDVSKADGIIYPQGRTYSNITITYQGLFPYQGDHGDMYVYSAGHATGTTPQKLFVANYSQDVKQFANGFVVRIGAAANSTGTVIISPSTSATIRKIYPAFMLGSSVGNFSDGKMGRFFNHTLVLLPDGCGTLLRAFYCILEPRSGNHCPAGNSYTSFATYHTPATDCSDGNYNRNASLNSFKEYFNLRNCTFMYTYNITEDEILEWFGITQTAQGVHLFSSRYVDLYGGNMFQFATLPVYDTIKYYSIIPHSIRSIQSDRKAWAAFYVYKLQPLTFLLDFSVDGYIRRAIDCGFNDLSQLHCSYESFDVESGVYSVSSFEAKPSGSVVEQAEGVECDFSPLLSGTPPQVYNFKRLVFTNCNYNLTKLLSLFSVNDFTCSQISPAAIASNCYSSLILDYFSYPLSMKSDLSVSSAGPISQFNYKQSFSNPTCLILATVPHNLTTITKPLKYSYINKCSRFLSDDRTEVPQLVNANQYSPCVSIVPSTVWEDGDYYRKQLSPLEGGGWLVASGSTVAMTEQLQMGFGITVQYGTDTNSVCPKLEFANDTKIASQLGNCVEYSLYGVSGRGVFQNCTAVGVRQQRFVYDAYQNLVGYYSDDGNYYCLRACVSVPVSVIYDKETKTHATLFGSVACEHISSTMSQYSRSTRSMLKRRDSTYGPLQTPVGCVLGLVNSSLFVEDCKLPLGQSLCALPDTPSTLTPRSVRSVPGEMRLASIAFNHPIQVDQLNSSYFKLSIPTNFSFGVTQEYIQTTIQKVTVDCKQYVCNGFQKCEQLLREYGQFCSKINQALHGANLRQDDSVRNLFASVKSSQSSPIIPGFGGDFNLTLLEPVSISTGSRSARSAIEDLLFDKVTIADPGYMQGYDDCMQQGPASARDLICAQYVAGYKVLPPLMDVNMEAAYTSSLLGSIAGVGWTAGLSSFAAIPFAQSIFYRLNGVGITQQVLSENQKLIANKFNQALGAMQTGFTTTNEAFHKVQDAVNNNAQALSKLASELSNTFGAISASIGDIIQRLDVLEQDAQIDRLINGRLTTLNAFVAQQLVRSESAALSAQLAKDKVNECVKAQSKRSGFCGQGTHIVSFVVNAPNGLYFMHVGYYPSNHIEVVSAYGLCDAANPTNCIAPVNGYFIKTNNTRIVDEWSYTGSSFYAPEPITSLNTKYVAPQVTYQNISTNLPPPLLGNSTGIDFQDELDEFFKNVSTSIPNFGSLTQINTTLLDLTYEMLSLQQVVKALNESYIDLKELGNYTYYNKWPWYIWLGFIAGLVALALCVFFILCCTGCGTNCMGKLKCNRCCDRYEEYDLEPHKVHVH

SARS-CoV NTD = SARS-CoV NTD (SARS-CoV, strain not named (reference …, UniProt P59594))

Binder	binding result [1]	binding result [2]	binding result (SARS-CoV S2)	binding result (MERS-CoV S2)	also measured
B1	–	–	–	–	binding result (SARS-CoV RBD): binds
B2	binds	–	–	–	–
B3	–	binds	binds	binds	–
B4	binds	–	–	–	–
B5	binds	–	–	–	binding result (SARS-CoV NTD): binds
B6	–	binds	binds	binds	–
B7	–	binds	–	–	–
B8	–	binds	binds	binds	–
